What was measured:
[1] = biological target: T1, recombinant soluble DR5 protein (rsDR5) (human, UniProt O14763 56-183); test: SPR, BIAcore 3000; antibody captured by anti-human IgG (Fc) on CM5 chip, rsDR5 0.3-85 nM as analyte
T1 construct: Expressed in E. coli from pET21b(+)-sDR5 and purified on Ni-NTA; also called DR5 extracellular domain protein
Experimental: (§1) For the direct coupling of anti-human IgG (Fc), CM5 sensor chips and the reference flow cells were coated with ˜1500-2000 RU in HBS-EP+(10 mM HEPES buffer, pH 7.4, 0.15 M NaCl, 3 mM EDTA, and 0.05% Surfactant P20). […] For regeneration, 3 M MgCl₂ was loaded at flow rate of 10 μl/min for 30 sec. All sensograms were globally fitted using BIAevaluation software 3.1 (Biacore) to determine the dissociation constant KD (KD=koff/kₒₙ).

[2] = biological target: T1, recombinant soluble DR5 protein (rsDR5); test: SPR, BIAcore 3000; conjugate captured by anti-human IgG (Fc) on CM5 chip, rsDR5 0.3-85 nM as analyte
Experimental: as §1

| Binder | Kd [1] | kon [1] | Kd [2] |
| --- | --- | --- | --- |
| hB273 antibody (humanized B273) (antibody, human IgG1, kappa, V domains shown, Anti-DR5 antibody) VH: EVQLVQSGAEVKKPGASVKVSCKASGYSFIGYFMNWMKQSPGMSLEWIGRFNPYNEDTFYNQKFKGKATLTVDKSTSTAYMELSSLRSEDTAVYFCARSAYYFDSGGYFDYWGQGTLVTVSS VL: DIVMTQSPLSLPVTPGEPASISCRSSQSLVHSNKNTYLHWYLQKPGQSPQLLIYKVSNRFSGVPDRFSGSGSGTDFTLKISRVEAEDVGVYYCSQSTHVPWTFGPGTKVEIKR | 2.6 nM | 2.6e+06 M⁻¹ s⁻¹ |  |
| hB273-vc-MMAE (antibody drug conjugate of hB273 conjugated with mc-vc-MMAE) (antibody, V domains shown, mc-vc-MMAE drug-linker on cysteine thiols freed by partial TCEP reduction; average about 3.5 to 4.5 drug-linker units per antibody; positions not given, Antibody drug conjugate of hB273; also called hB273-veMMAE) VH: EVQLVQSGAEVKKPGASVKVSCKASGYSFIGYFMNWMKQSPGMSLEWIGRFNPYNEDTFYNQKFKGKATLTVDKSTSTAYMELSSLRSEDTAVYFCARSAYYFDSGGYFDYWGQGTLVTVSS VL: DIVMTQSPLSLPVTPGEPASISCRSSQSLVHSNKNTYLHWYLQKPGQSPQLLIYKVSNRFSGVPDRFSGSGSGTDFTLKISRVEAEDVGVYYCSQSTHVPWTFGPGTKVEIKR |  |  | 3.2 nM |

— patent publication US20130280282A1, “DR5 LIGAND DRUG CONJUGATES” (Daiichi Sankyo Co., Ltd., priority 2012, published 2013)
